# Results reported in patent US11419945B2, “Antigen binding proteins” (Glaxo Group Limited, priority 2011, dated 2022).
# T1: Human commercial BCMA (Homo sapiens, UniProt Q02223)
# T1 construct: purchased US Biological B0410
# T1 sequence (Q02223 1-184): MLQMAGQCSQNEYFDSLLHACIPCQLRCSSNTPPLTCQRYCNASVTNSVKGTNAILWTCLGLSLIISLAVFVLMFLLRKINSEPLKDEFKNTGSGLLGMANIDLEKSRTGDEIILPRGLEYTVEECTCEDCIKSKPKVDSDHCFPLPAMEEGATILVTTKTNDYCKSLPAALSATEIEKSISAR
# T2: ARH77-hBCMA 10B5 BCMA expressing transfectant cells (Homo sapiens, UniProt Q02223)
# T2 construct: expressed in transfected cells; host or cells: ARH77 (clone 10B5)
# T2 sequence (Q02223 1-184): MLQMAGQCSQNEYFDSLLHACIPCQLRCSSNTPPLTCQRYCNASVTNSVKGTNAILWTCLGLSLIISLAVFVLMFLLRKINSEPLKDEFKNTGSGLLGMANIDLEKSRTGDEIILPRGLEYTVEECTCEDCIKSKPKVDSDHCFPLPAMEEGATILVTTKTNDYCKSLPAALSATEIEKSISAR
# What was measured:
# Human in house BCMA = biological target: T3, Human in house BCMA (Homo sapiens, UniProt Q02223); assay: ProteOn analysis of CA8 chimeric and humanised constructs, human in house BCMA; assay type: binding; conditions: for off rate: Run 2, ProteOn, recombinant human BCMA, no affinity values obtained
# T3 construct: CD33 signal peptide (N); TEV site (internal); Fc (C); made in house
# Protocol: (§1) The initial screen of CA8 chimeric and humanised variants was carried out on the ProteOn XPR36 (Biorad). The method was as follows; Protein A was immobilised on a GLC chip (Biorad, Cat No: 176-5011) by primary amine coupling, CA8 variants were then captured on this surface and recombinant human BCMA (in house or commercial US Biological, B0410) materials (run 2 only)) passed over at 256, 64, 16, 4, 1 nM with a 0 nM injection (i.e. buffer alone) used to double reference the binding curves, the buffer used is the HBS-EP buffer. 50 mM NaOH was used to regenerate the capture surface. The data was fitted to the 1:1 model using the analysis software inherent to the ProteOn XPR36. Run 1 corresponds to the first screen of humanised CA8 variants (JO to J5 series) and run 2 to the second screen of humanised CA8 variants (J5 to J9 series). Both runs were carried out at 25° C.
# Cyno in house BCMA [1] = assay: ProteOn analysis of CA8 chimeric and humanised constructs, cyno in house BCMA; assay type: binding; conditions: Run 2, Cyno in house BCMA, 25° C.
# Human commercial BCMA [2] = biological target: T1, Human commercial BCMA; assay: BIAcore analysis of J6M0 and J9M0, human commercial BCMA; assay type: binding
# Protocol: (§2) Protein A was immobilised on a CMS chip (GE Healthcare, Cat No: BR-1005-30) by primary amine coupling and this surface was then used to capture the antibody molecules. Recombinant human BCMA (US Biological, B0410) was used as analyte at 256 nM, 64 nM, 16 nM, 4 nM and 1 nM. Regeneration of the capture surface was carried out using 50 mM NaOH. All binding curves were double referenced with a buffer injection (i.e. 0 nM) the data was fitted to the using the 1:1 model inherent to T100 evaluation software. The run was carried out at 25° C. and 37° C. for experiment 1 and only 37° C. for experiment 2 using HBS-EP as the running buffer.
# Human commercial BCMA [3] = biological target: T1, Human commercial BCMA; assay: ProteOn analysis of CA8 chimeric and humanised constructs, commercial human BCMA; assay type: binding; conditions: Run 2, commercial human BCMA, 25° C.
# Protocol: as §1
# NCI-H929 tumours = assay: NCI-H929 murine xenograft; assay type: in vivo, CB.17 SCID mice
# Protocol: FIG. 19: Effect of dose escalation of J6M0 and drug conjugated J6M0 on the growth and establishment of NCI-H929 cells in CB.17 SCID mice. Calculated tumour volumes of NCI-H929 tumours in CB17 SCID mice following twice weekly intraperitoneal dosing of either 50 or 100 ug J6M0 anti-BCMA or IgG1 isotype control unconjugated, or conjugated to MMAE or MMAF for 2 weeks. Data points represent mean tumour volume of n=5 per group
# The cell line selected for xenograft studies was NCI-H929 which is sensitive to ADC and ADCC killing in vitro. Studies were carried out in immunocompromised CB.17 SCID mice which lack T and B cells but maintain NK cells to allow for ADCC activity.
# In order to independently analyze both the ADCC and ADC activities of J6M0 we tested J6M0 antibody in the presence and absence of MMAF or MMAE conjugation. By testing the unconjugated J6M0, any anti-tumour effects could be attributed to some combination of ADDC and functional inhibitory activity.
# Mice with NCI-H929 tumours that had reached a volume of 200 mm^3 on average were treated with a human IgG1 control or the J6M0 antibody (unconjugated, MMAE or MMAF) twice weekly at a dose of 50 ug or 100 ug, for 2 weeks.
# Cyno in house BCMA [4] = assay: BIAcore analysis J7 to J9 series, cyno in house BCMA; assay type: binding; conditions: 37° C.; for ka: in M-1s-1 (unit assumed); for kd: in s-1 (unit assumed)
# [5] = biological target: T2, ARH77-hBCMA 10B5 BCMA expressing transfectant cells; assay: FACS binding of humanised CA8 to BCMA transfected cells; conditions: varying concentrations, 20 minutes at RT
# Protocol: (§3) ARH77-hBCMA 10B5 BCMA expressing transfectant cells or H929 cells were stained with either chimeric CA8 or humanised variants of CA8 designated J6M0, J6M1, J6M2, J9M0, J9M1, J9M2 at varying concentrations for 20 minutes at RT. Cells were then washed with FACS buffer (PBS+0.5% BSA+0.1% sodium azide) to remove unbound antibody. Cells were incubated with a secondary PE labelled anti-human IgG antibody for 15 minutes at RT and then washed with FACS buffer to remove unbound antibody. Cells were analysed by FACS and mean fluorescence intensity (MFI) values measured to determine binding.
# H929 cells = assay: FACS binding of humanised CA8 to H929 cells; parameters: species or system human; conditions: varying concentrations, 20 minutes at RT
# Protocol: as §3
# Human commercial BCMA [6] = biological target: T1, Human commercial BCMA; assay: BIAcore analysis J7 to J9 series, human commercial BCMA; assay type: binding; conditions: 37° C.; for ka: in M-1s-1 (unit assumed); for kd: in s-1 (unit assumed)
# Protocol: as §2, with “nM) and” for “nM)”, “at” for “at 25° C. and”, “C.,” for “C. for experiment 1 and only 37° C. for experiment 2”
# [7] = Run 2, Human in house BCMA, ProteOn, 25° C.
# T3 sequence (Q02223 with tags, fused parts or gaps limits assumed): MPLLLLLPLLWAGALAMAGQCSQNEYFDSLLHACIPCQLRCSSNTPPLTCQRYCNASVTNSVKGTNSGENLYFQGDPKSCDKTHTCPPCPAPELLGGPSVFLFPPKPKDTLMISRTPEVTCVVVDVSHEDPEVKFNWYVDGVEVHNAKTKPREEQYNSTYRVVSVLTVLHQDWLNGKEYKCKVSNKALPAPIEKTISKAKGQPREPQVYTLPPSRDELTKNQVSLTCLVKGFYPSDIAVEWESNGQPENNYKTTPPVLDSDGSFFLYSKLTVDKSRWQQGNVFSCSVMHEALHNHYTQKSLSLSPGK
# Cyno in house BCMA, sequence (as listed by the source): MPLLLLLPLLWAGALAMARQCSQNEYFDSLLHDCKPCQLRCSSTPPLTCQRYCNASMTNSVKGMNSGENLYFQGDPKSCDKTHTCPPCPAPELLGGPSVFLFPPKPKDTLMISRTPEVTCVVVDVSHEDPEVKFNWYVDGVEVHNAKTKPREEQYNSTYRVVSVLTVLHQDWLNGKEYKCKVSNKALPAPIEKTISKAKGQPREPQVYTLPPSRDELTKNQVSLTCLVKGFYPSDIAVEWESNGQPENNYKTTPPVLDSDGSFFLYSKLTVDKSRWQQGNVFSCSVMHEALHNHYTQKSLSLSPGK
molecule,measurement,setting,value
CA8 humanised J6M0,ka,"Human in house BCMA; Run 2, Human in house BCMA, ProteOn, 25° C., in M-1s-1 (unit assumed)",2.40E+05
same,kd,"Human in house BCMA; Run 2, Human in house BCMA, ProteOn, 25° C., in s-1 (unit assumed)",7.40E−05
same,ka,Cyno in house BCMA [1]; in M-1s-1 (unit assumed),5.64E+04
same,kd,Cyno in house BCMA [1]; in s-1 (unit assumed),3.18E−04
same,ka,"Human commercial BCMA [2]; 25° C., Experiment 1, in M-1s-1 (unit assumed)",1.01E+06
same,kd,"Human commercial BCMA [2]; 25° C., Experiment 1, in s-1 (unit assumed)",1.22E−04
same,ka,"Human commercial BCMA [2]; 37° C., Experiment 1, in M-1s-1 (unit assumed)",2.12E+06
same,kd,"Human commercial BCMA [2]; 37° C., Experiment 1, in s-1 (unit assumed)",1.48E−03
same,ka,"Human commercial BCMA [2]; 37° C., Experiment 2, in M-1s-1 (unit assumed)",3.78E+06
same,kd,"Human commercial BCMA [2]; 37° C., Experiment 2, in s-1 (unit assumed)",1.88E−03
same,ka,Human commercial BCMA [3]; in M-1s-1 (unit assumed),6.23E+05
same,kd,Human commercial BCMA [3]; in s-1 (unit assumed),5.37E−05
J6M0-MMAF,anti-tumour activity compared with unconjugated J6M0 and J6M0-MMAE,NCI-H929 tumours; 50 ug or 100 ug twice weekly for 2 weeks,increased anti-tumour activity over both unconjugated J6M0 antibody and J6M0-MMAE conjugate
same,effect on NCI-H929 tumours,"NCI-H929 tumours; 100 ug dose twice weekly for 2 weeks, intraperitoneal, tumours 200 mm^3 at start",elimination of tumours
same,recurrence of tumour,NCI-H929 tumours; mice maintained for 40 days after the last dose,no recurrence of tumour
"CA8 humanised J9M2: humanised CA8 anti-BCMA antibody, VH J9 (SEQ ID NO:29) + VL M2 (SEQ ID NO:35) (antibody, V domains shown, Humansed antibody sequence) VH: QVQLVQSGAEVKKPGSSVKVSCKGSGYTFTNYWMHWVRQAPGQGLEWIGATYRGHSDTYYNQKFKGRATLTADTSTSTAYMELSSLRSEDTAVYYCTRGAIYDGYDVLDNWGQGTLVTVSS VL: DIQLTQSPSSLSASVGDRVTITCSASQDISNYLNWYQQKPGKAPELVIYYTSNLHSGVPSRFSGSGSGTDYTLTISSLQPEDFATYYCQQYRKLPWTFGQGTKLEIKR",ka,Cyno in house BCMA [4],4.88E+05
same,kd,Cyno in house BCMA [4],2.52E−04
same,off rate,Human in house BCMA,beyond the sensitivity of the assay
same,dose dependent binding to ARH77-hBCMA 10B5 cells by FACS (MFI),[5],all antibodies tested apart from J9M2 bound
same,dose dependent binding to H929 cells by FACS (MFI),H929 cells,all antibodies tested apart from J9M2 bound
same,KD,Human commercial BCMA [6],No
"CA8 humanised J7M2: humanised CA8 anti-BCMA antibody, VH J7 (SEQ ID NO:25) + VL M2 (SEQ ID NO:35) (antibody, V domains shown, Humansed antibody sequence) VH: QVQLVQSGAEVKKPGSSVKVSCKASGYTFTNYWMHWVRQAPGQGLEWMGATYRGHSDTYYNQKFKGRVTITADKSTSTAYMELSSLRSEDTAVYYCARGAIYDGYDVLDNWGQGTLVTVSS VL: DIQLTQSPSSLSASVGDRVTITCSASQDISNYLNWYQQKPGKAPELVIYYTSNLHSGVPSRFSGSGSGTDYTLTISSLQPEDFATYYCQQYRKLPWTFGQGTKLEIKR",ka,Cyno in house BCMA [4],3.46E+05
same,kd,Cyno in house BCMA [4],4.47E−04
same,off rate,Human in house BCMA,beyond the sensitivity of the assay
same,ka,Human commercial BCMA [6],2.37E+06
same,kd,Human commercial BCMA [6],1.35E−04
"S307118G03 H5L0: humanised S307118G03, VH H5 (SEQ ID NO:87) + VL L0 (SEQ ID NO:89) (antibody, V domains shown, Humansed antibody sequence) VH: QVQLVQSGAEVKKPGSSVKVSCKASGYTFTDYYMKWVRQAPGQGLEWIGEIYPNNGGITYNQKFKGRATLTVDKSTSTAYMELSSLRSEDTAVYYCANGYEFDYWGQGTLVTVSS VL: DIQMTQSPSSLSASVGDRVTITCSASQGISNYLNWYQQKPGKAPKLLIYYTSSLHSGVPSRFSGSGSGTDFTLTISSLQPEDFATYYCQQYSKLPWTFGQGTKLEIKR",KD,Human in house BCMA; [7],No Analysable Binding
same,KD,Cyno in house BCMA [1],No
same,KD,Human commercial BCMA [3],V weak signal
"S307118G03 H5L1: humanised S307118G03, VH H5 (SEQ ID NO:87) + VL L1 (SEQ ID NO:91) (antibody, V domains shown, Humansed antibody sequence) VH: QVQLVQSGAEVKKPGSSVKVSCKASGYTFTDYYMKWVRQAPGQGLEWIGEIYPNNGGITYNQKFKGRATLTVDKSTSTAYMELSSLRSEDTAVYYCANGYEFDYWGQGTLVTVSS VL: DIQMTQSPSSLSASVGDRVTITCSASQGISNYLNWYQQKPGKAPKLLIYYTSSLHSGVPSRFSGSGSGTDYTLTISSLQPEDFATYYCQQYSKLPWTFGQGTKLEIKR",KD,Human in house BCMA; [7],No Analysable Binding
same,KD,Cyno in house BCMA [1],No
same,KD,Human commercial BCMA [3],V weak signal
"CA8 humanised J7M1: humanised CA8 anti-BCMA antibody, VH J7 (SEQ ID NO:25) + VL M1 (SEQ ID NO:33) (antibody, V domains shown, Humansed antibody sequence) VH: QVQLVQSGAEVKKPGSSVKVSCKASGYTFTNYWMHWVRQAPGQGLEWMGATYRGHSDTYYNQKFKGRVTITADKSTSTAYMELSSLRSEDTAVYYCARGAIYDGYDVLDNWGQGTLVTVSS VL: DIQMTQSPSSLSASVGDRVTITCSASQDISNYLNWYQQKPGKAPKLLIYYTSNLHSGVPSRFSGSGSGTDYTLTISSLQPEDFATYYCQQYRKLPWTFGQGTKLEIKR",ka,Cyno in house BCMA [4],3.70E+05
same,kd,Cyno in house BCMA [4],3.91E−04
same,off rate,Human in house BCMA,beyond the sensitivity of the assay
same,ka,Human commercial BCMA [6],2.35E+06
same,kd,Human commercial BCMA [6],1.31E−04
"CA8 humanised J9M1: humanised CA8 anti-BCMA antibody, VH J9 (SEQ ID NO:29) + VL M1 (SEQ ID NO:33) (antibody, V domains shown, Humansed antibody sequence) VH: QVQLVQSGAEVKKPGSSVKVSCKGSGYTFTNYWMHWVRQAPGQGLEWIGATYRGHSDTYYNQKFKGRATLTADTSTSTAYMELSSLRSEDTAVYYCTRGAIYDGYDVLDNWGQGTLVTVSS VL: DIQMTQSPSSLSASVGDRVTITCSASQDISNYLNWYQQKPGKAPKLLIYYTSNLHSGVPSRFSGSGSGTDYTLTISSLQPEDFATYYCQQYRKLPWTFGQGTKLEIKR",ka,Cyno in house BCMA [4],6.77E+05
same,kd,Cyno in house BCMA [4],2.99E−04
same,off rate,Human in house BCMA,beyond the sensitivity of the assay
same,ka,Human commercial BCMA [6],1.96E+07
same,kd,Human commercial BCMA [6],3.50E−04
